The data set is described as follows: label from the status in PepcDB records.
For the sequence “MILKSSIDRLLQTIDIVEVISSYVNLRKSGSSYMACCPFHEERSASFSVNQIKGFYHCFGCGASGDSIKFVMAFEKLSFVEALEKLAHRFNIVLEYDKGVYYDHKEDYHLLEMVSSLYQEELFNAPFFLNYLQKRGLSLESIKAFKLGLCTNRIDYGIENKGLNKDKLIELGVLGKSDNDQKTYLRFLDRIMFPIYSPSAQVVGFGGRTLKEKAAKYINSPQSKLFDKSSLLYGYHLAKEHIYKQKQVIVTEGYLDVILLHQAGFKNAIATLGTALTPSHLPLLKKGDPEILLSYDGDKAGRNAAYKASLMLAKEQRRGGVILFENNLDPADMIANGQIETLKNWLSHPMAFIEFVLRRMADSYLLDDPLEKDKALKEMLGFLKNFSLLLQSEYKPLIATLLQAPLHVLGIRERVSFQPFYPKTEKPNRPQRFAHVSSAPSLEFLEKLVIRYLLEDRSLLDLAVGYIHSGVFLHKKQEFDALCQEKLDDPKLVALLLDANLPLKKGGFEKELRLLILRYFERQLKEIPKSSLPFSEKMICLKKARQAIMKLKQGELVAI”, the protein production result was “failed”. In the case of “MHIPDGIIPLWQCAVYWAVALINIGIFFYIFSKKPQKERRIVGTGLFAAAAAAVSSISVPSPFGVPVHFFLIPLAAILLGPLTAVIVATLCLVIQFFILGMGGLTSMGANILTMGIGLGVGTYAVYSVVSELDRSLAVFTATFFGIMVATVFHIMILLAAGVAGPEMLMATLIPFYIFVGVIEGAANIFIVSFLERMKPELTMMERV” it was “failed”; in that of “MTRPMRLAAVAAACLTMALAGCQTNGAGSTDGVVRTNEPSKGDVTSFGDAFDGLKTVSDVEYYASDQAVAEATNQFRAENYGNAGALFFKATQLAPNDGGAWMGLAASCDRIRRFDLADRAYGKAFKLVGASAEYYNNVGYSYLLRGKLQDARTSFLKAYELAPNDPTVANNLKLLSSSVQNIER”, “failed”; in that of “MYDYSILPNRIILCVDLRSFYASVSCIKMGLDPMHTKLAVVGDVNRNGSIVLAATPPLKALGVKKMARLYEIPRRKDILVVNPIMSTYIKCSNYITKLALQYVPIEDFHQYSIDEFFMDITDSIHLFAQDPYEFAMKFKREIYDHTRIECTIGIAPNPLMSKVALDIEAKKNKDGIAFWQYEDIPTKLWSIRPLNKFWGISYKTEEKLNRKGIYSIGDLANYPLKYLKQSFGKIGEELHLHSHGIDFSRISEKYVPATTSIGKSQILMRDYTIEEFPIILLEHIEEVCYRLRRQTKLAQTIHFSVGYSKSYTGGIRKTHTLNRPTNLTMDIYHICTYFLHQQYTGEPIRSINISLTNLIQEGEEQISLFDNVTKREQEMKLTKVMDEIRTKFGKNSILRGISYTHSATARHRNTLIGGHKS”, “failed”. Take “MAVDDSEEGKPAESEAPLDLLQDWEHARAHAVPFSDSLLTECILVDQECVTNTKIKQEVNASSGCNTTPDSNTQDSDKIDYIESMDVCSNVEIESTEDSIVTGLNSGNAEDVDMTPGWRRKRNQKSKKSYIGTKDVLDQTLDKDIPLNKQNRRFPITARPVKRECVKKYERETFENGNERVYSTSSPRGRVYLLNDAAKL”: the protein production result was “failed”. Consider “MRVFPVYAPKLIVKHARIFLTGVIWVKDLGRLEFEKGRFLLPRKSLPKVKQAILELNELIEAQNHQTKTALEHHHHHH”, for which the protein production entry is reported as “not failed”. Take “GKRSTMLLRAITPQDWDAILQIQEECYSQLDPEPLHVLQSKWHVSPQSCFVFEVNESVVGYCLAHPWTTNMPPALYEPITHLPKADTLYLHDIAISAKAQGLGAGSKALMRLKQLADRFNLGSLSLVAVQGADSYWRKMGFTPKAIDKCLGSYTDDAMYMIYKL”: the protein production entry is listed as “failed”. As to “MPRYKTVEQVLSLMKDRTRVRNIGIIAHVDHGKTTTSDTLLAASGIISPKVAGEALALDYLNVEQQRGITVKAANISLYHEAEGKGYVINLIDTPGHVDFSGRVTRSLRVLDGSIVVVDAVEGIMTQTETVLRQSLEERVRPILFINKVDRLVKELKLSPQEMLNRLLDIIRQVNNLIDMYGEPEFKEKWMINPQAGNVIFGSAKDKWGFSLPMAQKKGINMKNVIDAYTASDKSKLEELAAQAPINEALLDAAIKFVPNPIEAQKYRIPKIWKGDLDNELAKAMLNADPNGPIVFMITDMKVDPHAGLVATGRVFSGTLRSGEELWLVNAKTSQRILQVSLYMGPTRELAEEIPAGNIAAVLGLDRARSGETAISVGFSNVQGSFERLHYISEPVVTIAVEPKNPKDLTKMIDALRKLSIEDPNLVVKINEETGEYLLSGMGFLHLEVSLQLLRENYGIDVVTTPPIVVYRESIRAKSQVFEGKSPNKHNKFYLSVEPLNDKTIELISNGTIREDMDSKEMAKILRDEASWDYDEAKRIIAIDENVNVFVDLTSGVQHLREVMDTVLQGFRLAMKEGPLAHEPIRGVKVILHDAVIHEDPAHRGPAQIYPAVRNSIFAGFLTSRPTLLEPIQKLDIRVPADLIGNVTAVITRKRGKILDVSQIANMSRITAEIPVSESYDMASELRGSTGGRAFWGTEFSRWAPVPDSILLDVVTKIRERKGLPKELPKVEDFLS”, the protein production entry is listed as “failed”.

As to “MVIPSILEQAHALAGRAVGEGGIAVDATVGNGHDTAFLAQAVGAGGAVVGFDVQEEALVETRHRLEREALSAPVRLVHAGHQTLARHLEEAERGRVGAIMFNLGYLPGGDHSVVTRPETTRQALDAGTEALRPGGVITVVAYTGHEGGDEEADAVEAWASALPQAQFRALSYRFPNWSNDPPRLFAVEKRDALEHHHHHH”, the protein production result is given as “failed”.

Turning to “MSHHVQREIRYNFEFDHRIRACFIGAGGHAYRNVYPALRYAPVELSGICDLDIGRAEKFAKLFGAGKAYTDHREMLEQEKPELVFLVTAYHPDGRVQATDLALDALASGAHVWMEKPTAASLEDIERLQAASAAAGRMVMTGLKKTFFPTIEKLRDLIGSPGFGRLTSINVRYPQSLPGQEDRADLVKMQSFLDHIYHPGAILHFLGGEIERAGYEWEALTGATITSLRFHSGAIGTLHLAAGQSGSSIFERVEIIGEGANAIVENGSRLTYFRKADLPSYGRAASFIQPDENAALFYEPEHSLGQLYNNNLFYLGYVPEILHLTDAILSGTPISRGTLEIAREIMKLFEFYRRTDAGVTTNL”, the protein production entry is “failed”.

As for “MQLINLRYISNWRVLLIAVVVLLCLLLSSQLGVVKPYEIVDPLDILGEGSTLFLTILIVIFMVTDRPRGNVTNLFYSGGLLLIFSMTLDVLDEFFRYPDALRLLSWLESFPLPVGLIIISFAAAEWRRENKMLSRQLMVREKNLRSHQWVDPLTSLYTTPYFIKLVEREIALQNSTDAESTVLVSVNFKNFAQYNHEMGTKAGDELLHQASELMVLLLRPQDCLCREHSDHFLILLPQTRLSQADRLMKVIAQNLNSELELPNYMSVEVHTHRVEELSAVDAITALHTQVEEMTHYAPLAN”, the protein production result is “failed”. As to “MATAVKLSGISKTFGSLKANDNVSLSIEAGSIHALVGENGAGKSTLSNIIYGLLHPDSGTIEIDGKAVKFSSVRQAIEAGIGMVHQHFMLVPTLSVTENIILGKEESRLALPTRRIGKEIRQLSQQHGLEVDPDALVSTLSVGEQQRVEILKLLYRRAKLLILDEPTAVLSPPETARLFATLRSLAAEGRTVLLITHKLDEVLTVSDSVSVMRKGSLVGTVPTTSTSKEDLARMMVGRDVLLRTANAPQTPGKTVLSIDKLTYRSPLGIDKLTGLTLHVRAGEIYGIAGVEGNGQSELLSLLWGTFDRSGKTGGSITIDAQETLGKNPSEIAALGVSMIPEDRHKSAIIAEYGIEENLILGRHREKAFHRGIGFDRDAVHKNATAMIEQYDIRCAAGTNPPIASLSGGNQQKIVVAREMERPQLKLLVLAQPTRGVDIGAIEQIHKRIIDARKSGLAILLISSELEEIVALSTRIGCLYKGAIRHEFSETEVWRGRDHESGFEKEIGMHITLEHHHHHH”, the protein production result was “not failed”. Take “MANLAASTCLYSWLLVLLLSSVSAIIDEDTQVYIVYMGSLSSRADYIPTSDHMSILQQVTGESSIEGRLVRSYKRSFNGFAARLTESERTLIAEIEGVVSVFPNKILQLHTTTSWDFMGVKEGKNTKRNLAIESDTIIGVIDTGIWPESKSFSDKGFGPPPKKWKGVCSGGKNFTCNNKLIGARDYTSEGTRDTSGHGTHTASTAAGNAVKDTSFFGIGNGTVRGGVPASRIAAYKVCTDSGCSSEALLSSFDDAIADGVDLITISIGFQFPSIFEDDPIAIGAFHAMAKGILTVSSAGNSGPKPTTVSHVAPWIFTVAASTTNRGFITKVVLGNGKTLAGRSVNAFDMKGKKYPLVYGKSAASSACDAKTAALCAPACLNKSRVKGKILVCGGPSGYKIAKSVGAIAIIDKSPRPDVAFTHHLPASGLKAKDFKSLVSYIESQDSPQAAVLKTETIFNRTSPVIASFSSRGPNTIAVDILKPDITAPGVEILAAFSPNGEPSEDDTRRVKYSVFSGTSMACPHVAGVAAYVKTFYPRWSPSMIQSAIMTTAWPVKAKGRGIASTEFAYGAGHVDPMAALNPGLVYELDKADHIAFLCGMNYTSKTLKIISGDTVKCSKKNKILPRNLNYPSMSAKLSGTDSTFSVTFNRTLTNVGTPNSTYKSKVVAGHGSKLSIKVTPSVLYFKTVNEKQSFSVTVTGSDVDSEVPSSANLIWSDGTHNVRSPIVVYIMVVDEA”: the protein production entry was “failed”. In the case of “MPQKTKDTPMMRQYFAVKNQYPDAFLFYRLGDFYEMFFDDAIKGAQLLELTLTTRNHSAENPIPMCGVPHRAVQNYIDILVDKGYKVAICEQMEDPKLAKGMVKREVIQLVTPGTTLERGAEQAKTNNYLTALIQRDQQYGFAYADLSTGELKTSVLTTNDTLINELTSLQTKEIVVDDSVASDLRDQIKTLGILISEQNNVTPQAQLSYLTQDLTVDLEQQVVERLLMYITVTQKRSLAHLQKAIAYEPSYFLKLDHNSKYNLELMKSIRTGKKQGTLLWLLDETKTAMGGRLLKQWIDRPLIVKADIETRQNKVATLLDHYFERSNLQEELTKVYDLERLAGRVAFGSVNGRDLVQLKTSLRQIPKIRYILSELDTQVFNDEVNQLDPVEDVADLIDAAIVEDAPLSVTDGGVIKDGYNEQLDQYRDAMNNGKKWIAELEAQERATTGIKNLKIGFNRVFGYYIEVTKANLAQLPKDRYERKQTLTNAERFSTPELKSHESLILEAESHSTDLEYQLFTKVRETVKKAIQRLQTLAKAVAAIDVLQSFAVVSEDYHFVRPKLTKSHDLKIVDGRHPVVEKVMGNQSYVPNNVTMSPDETVLLITGPNMSGKSTYMRQLALTVIMAQIGCFVPAKSAQLPIFDQIFTRIGATDDLISGQSTFMVEMQEANNALQHATANSLVLFDEIGRGTATYDGMALAQAIIEFVHNHIHAKTLFSTHYHELTALDQELSGLRNVHVGATEQDGELVFLHKVEPGAADKSYGVHVAKLAGMPTSLLERANKILTSLENQTSTVSTTAASIAASDAANSVAPNTAASMPVEAADESQPVESETPVAEAPVAEAGDEQLSLFAEPAVTDAKGEKVLQQLKTLNLMAMTPMDVMNQLYKWQQKLGK” it was “failed”. Turning to “MSGDAATDADAGRAGPGGVFGVGFRSLLRREILRFVRRPRNTFAPPAITNVLYFAVFGVILGQRIDDIAGFDYIVFLLPGLVVLGAISNAFENASFSIFHGRWNEYIHETLTAPLSYSSMVLAYVFAAALRGIIVGLIIVAVGLVFTTVPVNEPLYLAAFMVVVPLLFASLGVIGGLVAEDFDDLTVMNQFILRPLVFFGAVFYSLEILPPLYRTLSLLNPMVYMVNGVRYGFLGYQEVDPLASLAVLSGLTAAVIVLDIYLFKRGYGLID”, the protein production entry was “failed”. Take “MTYEAFVELVERLWEEVPEDFKRGLQGVHVFPEAKPEPGLEGVWRLGEYLDPGPPSAFGGFEDLGRHIALYYGSFLEVAGEGFDWEAEVWETLLHELRHHLESLAGRDDLVQEDLRRLDAFRRGGPSGEG”: the protein production result is recorded as “not failed”. As for “MWWGVAAALLANVLYSTGFVLEKRALASLPEVDIRRPARLLRLVLGSPLWIGGSLSLAAGFGAQLAVYRTLPIAAAQGIFVSGLVLLVLLSARLLGEETTGRERYALGAILAALLMVVLSLREGSDKVSRSAPVPLILLVCVPSLAMGVWLYGSAERRARHRHRMPTTGVEYGVAVGLLYGVSSLAIKGVSSYLTPADGLGGAVVGLLRSPYPYLLLFTGVFGLVMSQAALQRCRASLIVPVCTTVTCLFTAVLGTLAFGEALPHEPLRLALRLAGTALAVSVLLAMPKHDTAPQPSAAPKELTPP”, the protein production result is reported as “failed”.
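Note: failed if final PepcDB status was selected cloned or expressed and not failed if soluble or beyond.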
